The series concerns the molecule itself. Description: crystal structure; hanging drop vapor diffusion at 18 °C; 25% PEG3350, 50 mM Tris pH8.5, 200 mM di-sodium tartrate; no reducing agents present; space group P1, eight molecules in the asymmetric unit.

Data on 1 protein can be found in PMC6131172, “The first crystal structure of a DNA-free nuclear receptor DNA binding domain sheds light on DNA-driven allostery in the glucocorticoid receptor” (Scientific Reports, 2018).

B1: glucocorticoid receptor (GR) DNA binding domain (DBD), residues 418–517 (domain or fragment, UniProt P04150 418-517, looked up)
chain: PKLCLVCSDEASGCHYGVLTCGSCKVFFKRAVEGQHNYLCAGRNDCIIDKIRRKNCPACRYRKCLQAGMNLEARKTKKKIKGIQQATTGVSQETSENPGN
notes: In the crystal two molecules are linked by a disulfide bridge via Cys431 (no reducing agents during crystallization); Each molecule holds two Zn2+; Mixed with a 35 nt RNA hairpin before crystallization, but no nucleic acid was found in the crystal; also called GR DBD; free GR DBD; not shown: His6-Sumo, N-terminal, cleaved
On to B1, for which the binding result is on record as “binds”.
